B1: C22orf15 (parent)
chain: RGRHEQSPTSRPRKVSSLPPRSC
B2: TAF7L (parent)
chain: PDVENEVKRLLRSDAEAVSTRWEV

Variants of: B1
Assay: protein stability index of a GFP-peptide fusion (GPS, HEK-293T) (PSI 1-6); higher = more stable
Conditions: c terminus: native
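Note: lentivirally expressed fusions sorted by FACS into six bins by GFP to DsRed ratio, PSI derived from sequencing read proportions per bin multiplied by bin number.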

| Variant | protein stability index |
| --- | --- |
| RGRHEQSPTSRPRKVVSLPPRSC | 3.6 |
| RGRHEQSPTSRPRKVWSLPPRSC | 1.81 |
| RGRHEQSPTSRPRKVYSLPPRSC | 3.44 |
| RGRHEQSPTSRPRKVSELPPRSC | 3.27 |
| RGRHEQSPTSRPRKVSGLPPRSC | 1.99 |
| RGRHEQSPTSRPRKVSILPPRSC | 2.3 |
| RGRHEQSPTSRPRKVSKLPPRSC | 1.93 |
| RGRHEQSPTSRPRKVSMLPPRSC | 1.89 |
| RGRHEQSPTSRPRKVSNLPPRSC | 2.99 |
| RGRHEQSPTSRPRKVSPLPPRSC | 3.73 |
| RGRHEQSPTSRPRKVSQLPPRSC | 2.34 |
| RGRHEQSPTSRPRKVSRLPPRSC | 3.79 |
| RGRHEQSPTSRPRKVSYLPPRSC | 2.45 |
| RGRHEQSPTSRPRKVSSAPPRSC | 1.68 |
| RGRHEQSPTSRPRKVSSCPPRSC | 2.88 |
| RGRHEQSPTSRPRKVSSDPPRSC | 1.5 |
| RGRHEQSPTSRPRKVSSHPPRSC | 3.38 |
| RGRHEQSPTSRPRKVSSIPPRSC | 2.76 |
| RGRHEQSPTSRPRKVSSMPPRSC | 3.65 |
| RGRHEQSPTSRPRKVSSTPPRSC | 4.07 |
| RGRHEQSPTSRPRKVSSVPPRSC | 3.25 |
| RGRHEQSPTSRPRKVSSWPPRSC | 3.64 |
| RGRHEQSPTSRPRKVSSYPPRSC | 2.29 |
| RGRHEQSPTSRPRKVSSLAPRSC | 4.11 |
| RGRHEQSPTSRPRKVSSLDPRSC | 3.23 |
| RGRHEQSPTSRPRKVSSLFPRSC | 2.19 |
| RGRHEQSPTSRPRKVSSLIPRSC | 1.81 |

| Variant | protein stability index |
| --- | --- |
| RGRHEQSPTSRPRKVSSLLPRSC | 3.07 |
| RGRHEQSPTSRPRKVSSLMPRSC | 1.93 |
| RGRHEQSPTSRPRKVSSLQPRSC | 1.44 |
| RGRHEQSPTSRPRKVSSLRPRSC | 2.13 |
| RGRHEQSPTSRPRKVSSLSPRSC | 3.79 |
| RGRHEQSPTSRPRKVSSLTPRSC | 4.33 |
| RGRHEQSPTSRPRKVSSLVPRSC | 2.86 |
| RGRHEQSPTSRPRKVSSLYPRSC | 3.14 |
| RGRHEQSPTSRPRKVSSLPARSC | 3 |
| RGRHEQSPTSRPRKVSSLPCRSC | 1.58 |
| RGRHEQSPTSRPRKVSSLPDRSC | 3.82 |
| RGRHEQSPTSRPRKVSSLPERSC | 2.84 |
| RGRHEQSPTSRPRKVSSLPFRSC | 4.13 |
| RGRHEQSPTSRPRKVSSLPIRSC | 2.72 |
| RGRHEQSPTSRPRKVSSLPSRSC | 1.99 |
| RGRHEQSPTSRPRKVSSLPVRSC | 2.26 |
| RGRHEQSPTSRPRKVSSLPYRSC | 2.1 |
| RGRHEQSPTSRPRKVSSLPPASC | 4.53 |
| RGRHEQSPTSRPRKVSSLPPCSC | 3.38 |
| RGRHEQSPTSRPRKVSSLPPDSC | 5.37 |
| RGRHEQSPTSRPRKVSSLPPESC | 5.2 |
| RGRHEQSPTSRPRKVSSLPPFSC | 4.25 |
| RGRHEQSPTSRPRKVSSLPPGSC | 1.74 |
| RGRHEQSPTSRPRKVSSLPPHSC | 4.53 |
| RGRHEQSPTSRPRKVSSLPPISC | 2.83 |
| RGRHEQSPTSRPRKVSSLPPKSC | 5.13 |
| RGRHEQSPTSRPRKVSSLPPLSC | 3.37 |

| Variant | protein stability index |
| --- | --- |
| RGRHEQSPTSRPRKVSSLPPMSC | 3.66 |
| RGRHEQSPTSRPRKVSSLPPNSC | 4.68 |
| RGRHEQSPTSRPRKVSSLPPPSC | 4.74 |
| RGRHEQSPTSRPRKVSSLPPQSC | 4.51 |
| RGRHEQSPTSRPRKVSSLPPSSC | 4.8 |
| RGRHEQSPTSRPRKVSSLPPTSC | 4.25 |
| RGRHEQSPTSRPRKVSSLPPVSC | 2.88 |
| RGRHEQSPTSRPRKVSSLPPWSC | 4.43 |
| RGRHEQSPTSRPRKVSSLPPYSC | 4.92 |
| RGRHEQSPTSRPRKVSSLPPRDC | 1.39 |
| RGRHEQSPTSRPRKVSSLPPREC | 2.6 |
| RGRHEQSPTSRPRKVSSLPPRHC | 4.07 |
| RGRHEQSPTSRPRKVSSLPPRLC | 2.35 |
| RGRHEQSPTSRPRKVSSLPPRPC | 3.03 |
| RGRHEQSPTSRPRKVSSLPPRQC | 2.27 |
| RGRHEQSPTSRPRKVSSLPPRTC | 3.62 |
| RGRHEQSPTSRPRKVSSLPPRSF | 3.5 |
| RGRHEQSPTSRPRKVSSLPPRSH | 2.29 |
| RGRHEQSPTSRPRKVSSLPPRSI | 1.8 |
| RGRHEQSPTSRPRKVSSLPPRSL | 2.42 |
| RGRHEQSPTSRPRKVSSLPPRSN | 5.09 |
| RGRHEQSPTSRPRKVSSLPPRSQ | 2.29 |
| RGRHEQSPTSRPRKVSSLPPRST | 2.97 |
| RGRHEQSPTSRPRKVSSLPPRSV | 3.28 |
| RGRHEQSPTSRPRKVSSLPPRSW | 2.64 |
| RGRHEQSPTSRPRKVSSLPPRSY | 3.2 |

Variants of: B2
Assay: as above
Conditions: c terminus: a fixed tail appended

| Variant | protein stability index |
| --- | --- |
| ADVENEVKRLLRSDAEAVSTRWEV | 2.92 |
| DDVENEVKRLLRSDAEAVSTRWEV | 2.96 |
| EDVENEVKRLLRSDAEAVSTRWEV | 4.44 |
| HDVENEVKRLLRSDAEAVSTRWEV | 2.27 |
| IDVENEVKRLLRSDAEAVSTRWEV | 2.79 |
| KDVENEVKRLLRSDAEAVSTRWEV | 3.27 |
| LDVENEVKRLLRSDAEAVSTRWEV | 3.52 |
| NDVENEVKRLLRSDAEAVSTRWEV | 3.43 |
| RDVENEVKRLLRSDAEAVSTRWEV | 2.36 |
| SDVENEVKRLLRSDAEAVSTRWEV | 4.05 |
| TDVENEVKRLLRSDAEAVSTRWEV | 3.29 |
| YDVENEVKRLLRSDAEAVSTRWEV | 3 |
| PAVENEVKRLLRSDAEAVSTRWEV | 3.91 |
| PCVENEVKRLLRSDAEAVSTRWEV | 2.9 |
| PFVENEVKRLLRSDAEAVSTRWEV | 3.15 |

Reference: the supplement of paper PMC10567573
